One series concerns the target Ccr (Pseudomonas putida, UniProt H9N291). As to the kind of experiment: NAD(P)H:cytochrome c oxidoreductase (Ccr) activity. Format: biochemical, Pseudomonas putida CBB5. The procedure:
NADH:cytochrome c oxidoreductase (cytochrome c reductase, Ccr) activity was determined as described by Ueda et al. (1972). A typical 1-mL reaction contained 300 μM NADH, 87 μM bovine cytochrome c (type III; Sigma), and 1-20 μg CBB5 protein (depending on purity) in 50 mM KPi buffer. The activity was determined by monitoring the increase in absorbance at 550 nm due to reduction of […] cytochrome c at 30° C. An extinction coefficient of 21,000 M^−1 cm^−1 for reduced minus oxidized cytochrome c was used for quantitating the activity. One unit of activity was defined as one μmol of cytochrome c reduced per minute.

The target in series [1] is T1, Ndm, two-subunit N-demethylase component purified from Pseudomonas putida CBB5 (UniProt H9N289).
T1 sequence 1: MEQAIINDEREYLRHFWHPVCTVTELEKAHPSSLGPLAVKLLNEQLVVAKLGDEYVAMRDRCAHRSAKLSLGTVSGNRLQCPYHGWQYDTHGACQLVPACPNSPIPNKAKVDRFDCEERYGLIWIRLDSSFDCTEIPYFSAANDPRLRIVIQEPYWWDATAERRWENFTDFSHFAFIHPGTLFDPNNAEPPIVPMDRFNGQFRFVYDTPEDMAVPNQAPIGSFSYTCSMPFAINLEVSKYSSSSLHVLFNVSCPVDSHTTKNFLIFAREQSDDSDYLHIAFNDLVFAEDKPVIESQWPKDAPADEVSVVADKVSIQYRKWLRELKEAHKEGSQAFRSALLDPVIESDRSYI
T1 sequence 2: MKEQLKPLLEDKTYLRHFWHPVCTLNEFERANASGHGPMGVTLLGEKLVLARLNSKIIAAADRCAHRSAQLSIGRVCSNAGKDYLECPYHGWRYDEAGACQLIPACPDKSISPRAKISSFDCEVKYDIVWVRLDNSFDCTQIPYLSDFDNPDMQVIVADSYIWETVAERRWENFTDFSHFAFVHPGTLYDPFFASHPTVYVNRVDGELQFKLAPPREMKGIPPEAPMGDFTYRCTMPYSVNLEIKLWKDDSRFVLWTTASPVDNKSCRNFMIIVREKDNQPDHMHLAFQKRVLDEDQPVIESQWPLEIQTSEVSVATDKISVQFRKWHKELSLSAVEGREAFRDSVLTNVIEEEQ

Series [2] has as its target T2, NdmB, 35 kDa subunit of N-demethylase Ndm purified from Pseudomonas putida CBB5 (Pseudomonas putida CBB5, UniProt H9N290 1-355).
T2 construct: Native protein purified from CBB5; Rieske [2Fe-2S] non-heme iron oxygenase; also called 35 kDa-protein
T2 sequence (looked up): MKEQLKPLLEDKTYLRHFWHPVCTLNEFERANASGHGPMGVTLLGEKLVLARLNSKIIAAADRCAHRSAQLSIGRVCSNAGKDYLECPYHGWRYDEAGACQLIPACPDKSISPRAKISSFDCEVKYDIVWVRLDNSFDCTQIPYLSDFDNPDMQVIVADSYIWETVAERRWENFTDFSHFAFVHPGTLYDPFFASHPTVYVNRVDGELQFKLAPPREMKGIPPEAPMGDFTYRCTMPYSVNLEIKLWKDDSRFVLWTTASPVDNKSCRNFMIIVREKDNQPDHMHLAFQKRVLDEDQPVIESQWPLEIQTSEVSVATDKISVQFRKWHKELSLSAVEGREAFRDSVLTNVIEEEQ
As to the kind of experiment: gel filtration of purified native Ndm (single symmetric peak, about 240 kDa), fractions checked by SDS-PAGE.

Substrate in series [3]: Cn1c(=O)c2[nH]cnc2n(C)c1=O
As to the kind of experiment: Kinetic parameters of NdmA-His6 with His6-NdmD. Format: biochemical, Pseudomonas putida CBB5. Conditions: other: NdmA-His6 plus His6-NdmD, pH 7.5, 30° C. The procedure:
Methylxanthine N-demethylase activity assay contained, in 1-ml total volume, 0.5 mM methylxanthine, 1 mM NADH, 50 μM Fe(NH4)2(SO4)2, and an appropriate amount of NdmA-His6 or NdmB-His6 (7.4 μg-2.5 mg protein depending on substrate specificity) in 50 mM KPi buffer (pH 7.5). Approximately 4 U of partially purified reductase, prepared as described previously (Summers et al., 2011) or 59 U of purified His6-NdmD was added to reaction mixture. Catalase from bovine liver (4,000 U) was also added to reactions containing His6-NdmD. The reaction mixture was incubated at 30° C. with 300 rpm shaking on an incubating microplate shaker (VWR, Radnor, Pa.). Periodically, a small aliquot was sampled from the reaction mixture and mixed with equal volume of acetonitrile for quantifying concentrations of methylxanthines and N-demethylated products by HPLC. One unit of N-demethylase activity was defined as the consumption of one […] methylxanthine per minute.
Apparent kinetic parameters of NdmA-His6 and NdmB-His6 were determined by measuring the initial rate of disappearance (vo) of methylxanthines in 50 mM KPi buffer (pH 7.5) at 30° C. […] At 1, 5, 10, and 15 minutes, samples were removed from the reaction mixtures to quantitate substrate concentrations by HPLC. […] The apparent kinetic parameters were determined from Michaelis-Menten plots of vo against [S] fitted with the equation

The target in a further series is T3, NdmB-His6, H9N290.
T3 chain: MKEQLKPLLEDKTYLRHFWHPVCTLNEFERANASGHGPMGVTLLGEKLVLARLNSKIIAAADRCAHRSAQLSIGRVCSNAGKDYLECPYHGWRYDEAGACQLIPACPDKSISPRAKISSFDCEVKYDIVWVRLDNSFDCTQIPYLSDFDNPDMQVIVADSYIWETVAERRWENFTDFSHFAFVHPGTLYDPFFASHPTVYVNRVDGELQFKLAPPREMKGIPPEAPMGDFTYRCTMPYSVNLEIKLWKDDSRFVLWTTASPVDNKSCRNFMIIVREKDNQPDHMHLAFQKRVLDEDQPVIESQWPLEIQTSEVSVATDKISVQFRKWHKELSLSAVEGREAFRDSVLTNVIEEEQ

In a further series the target is T4, NdmA-His6, H9N289.
T4 chain: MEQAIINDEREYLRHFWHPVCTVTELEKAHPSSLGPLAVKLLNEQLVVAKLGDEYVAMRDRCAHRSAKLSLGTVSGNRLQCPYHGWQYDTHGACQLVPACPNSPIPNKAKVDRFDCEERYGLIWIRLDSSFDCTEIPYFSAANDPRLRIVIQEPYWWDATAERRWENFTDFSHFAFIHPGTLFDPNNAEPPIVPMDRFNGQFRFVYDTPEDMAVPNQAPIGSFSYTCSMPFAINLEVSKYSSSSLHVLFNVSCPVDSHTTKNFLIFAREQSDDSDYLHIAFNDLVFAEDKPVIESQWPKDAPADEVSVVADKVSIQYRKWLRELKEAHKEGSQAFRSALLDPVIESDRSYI

On to `NC(=O)C1=CN([C@@H]2O[C@H](COP(=O)(O)OP(=O)(O)OC[C@H]3O[C@@H](n4cnc5c(N)ncnc54)[C@H](OP(=O)(O)O)[C@@H]3O)[C@@H](O)[C@H]2O)C=CC1` [NADPH], for which the “Ccr activity relative to that with NADH” value at Ccr came to 22%.

“Ccr, partially purified cytochrome c reductase component of Pseudomonas putida CBB5”: the N-demethylase activity result in series [1] was “No N-demethylase activity was observed when purified Ndm was assayed without the Ccr fraction”.

B1: NdmA, 40 kDa subunit of N-demethylase Ndm purified from Pseudomonas putida CBB5 (enzyme, UniProt H9N289 1-351, looked up)
chain: MEQAIINDEREYLRHFWHPVCTVTELEKAHPSSLGPLAVKLLNEQLVVAKLGDEYVAMRDRCAHRSAKLSLGTVSGNRLQCPYHGWQYDTHGACQLVPACPNSPIPNKAKVDRFDCEERYGLIWIRLDSSFDCTEIPYFSAANDPRLRIVIQEPYWWDATAERRWENFTDFSHFAFIHPGTLFDPNNAEPPIVPMDRFNGQFRFVYDTPEDMAVPNQAPIGSFSYTCSMPFAINLEVSKYSSSSLHVLFNVSCPVDSHTTKNFLIFAREQSDDSDYLHIAFNDLVFAEDKPVIESQWPKDAPADEVSVVADKVSIQYRKWLRELKEAHKEGSQAFRSALLDPVIESDRSYI
notes: Native protein purified from CBB5; Rieske [2Fe-2S] non-heme iron oxygenase; also called 40 kDa-protein
Broadly, the Km is the concentration of substrate that gives half-maximal velocity. Turning to B1, the binding result in series [2] is given as “binds”. The Km in series [3] was 91. μM.

B2: His6-NdmD (protein)
chain: HHHHHHSSGLVPRGSHMNKLDVNQWFPIATTEDLPKRHVFHATLLGQEMAIWRDDSGSVNAWENRCPHRGLRLTLGANTGNELRCQYHGWTYESGTGGCTFVPAHRDAPPPNAARVNTFPVREKHGFIWTTLGQPPGEPISILDDAQLVNAVKTNLHSVVIDADIDGVVSVLRQNLSAFIDVFGAASAEDLHLKSMLQDRGILVTRSGSIAIHFYMQRSTISKCVVHAQVLTPGRPGYELQKNYSYAMNVIRRAAEAVATDLISITDISDQTIEKLEVVRENMTKAPPTHYICEVVTRTQETGDINSYWLKPIGYPLPAFSPGMHISITTPEGSIRQYSLVNGPDERESFIIGVKKEIQSRGGSRSMHEDVKVGTQLKVTLPRNGFPLVQTRKHPILVAGGIGITPILCMAQALDQQGSSYEIHYFARAFEHVPFQDRLTALGDRLNVHLGLGPDETRAKLPDIMEIHNAQDVDVYTCGPQPMIETVSAVALAHGIAEESIRFEFFSKKNDVPVSDEEYEVELKKTGQIFTVSPGSTLLQACLDNDVRIEASCEQGVCGTCITPVVSGDLEHHDTYLSKKERESGKWIMPCVSRCKSKKIVLDL
As to B2, the “N-demethylation of theobromine to 7-methylxanthine (HPLC)” value in the series with NdmB-His6, H9N290 was “NdmB-His6 with His6-NdmD, theobromine, NADH, and Fe^2+ resulted in stoichiometric demethylation at N3 of theobromine to 7-methylxanthine”. In the series with NdmA-His6, H9N289, the “N-demethylation of caffeine to theobromine (HPLC)” value is “when NdmA-His6 was incubated with His6-NdmD, caffeine, NADH, and exogenous Fe^2+, caffeine was stoichiometrically demethylated at N1 to theobromine”.

The values are drawn from patent US20150184166A1 (Uinversity of Iowa Research Foundation, priority 2012, published 2015).
